Entries after “also recorded” stand apart in the source; their conditions may differ.
Legend:
[1] = cited from earlier work
[2] = Appearance / visible particles in injection (quality control); type: physicochemical; conditions: batch QC result
[3] = Free 67Cu in the formulation by radioTLC; type: physicochemical; conditions: batch QC result; acceptance ≤5%
From the text: The stability of the complex can also be measured by considering the amount of free copper, i.e. free copper radioisotope that is intended to be complexed with the sarcophagine ligand, present in the formulation. In certain embodiments, the amount of free copper radioisotope present in formulation is not more than about 5%. In other embodiments, the amount of free copper radioisotope present in the formulation is not more than about 4%. In other embodiments, the amount of free copper present in the formulation is not more than about 3%. In other embodiments, the amount of free copper present in the formulation is not more than about 2%. In other embodiments, the amount of free copper present in the formulation is not more than about 1%. In other embodiments, the amount of free ^67Cu present in the formulation is less than about 1%. In other embodiments, the amount of free ^67Cu present in the formulation is less than about 2%.
TLC was performed with a mobile phase of 10 mM NaEDTA in 50 mM phosphate buffer using a silica gel 60 F254 aluminium backed TLC plate with dimensions of 1 cm×10 cm.

[4] = Radiochemical purity / stability of the formulation by radioHPLC; type: physicochemical
From the text: The stability of the formulation relates to the stability of the complex, where the radioisotope may undergo dissociation or the complex may undergo radiolysis. The stability of the complex can be measured by considering the radiochemical purity of the formulation. Radiochemical purity is defined as the amount of the radioisotope complexed by the sarcophagine ligand expressed as a percentage of the total amount of the radioisotope present in the formulation. The radioisotope may be present in the formulation as a complex with the sarcophagine ligand, as a free radioisotope or as part of a radiolysis product. […] In the embodiments, described herein, radiochemical purity may be determined by techniques such as radioHPLC, where the amount of the radioisotope in either its complexed or free form is determined and compared with the amount of the radioisotope introduced to the formulation. A person skilled in the art would understand the necessary conditions for separation, analysis and quantification of the formulation by radioHPLC. Nonetheless, in certain embodiments, the mobile phase used to analyse a formulation as disclosed herein by radioHPLC comprises about 0.1% trifluoroacetic acid (TFA) in water. […]
Product stability was monitored up to 96 hours post End of Synthesis (EOS) for 3 validation batches of [^67Cu]Formula(Ib) in an aqueous formulation prepared as outlined above. […]

[5] = pH by probe (quality control); type: physicochemical; conditions: batch QC result; acceptance 4.0-8.0

| SMILES | pKa (acid dissociation constant) [1] | Appearance/Visible particles in injection [2] | Free [67Cu]Cu2+ by TLC [3] [%] | Radiochemical purity by radio-HPLC ([4]; batch QC result, acceptance ≥90%) [%] | radiochemical purity (RPC) over the stability test ([4]; up to 96 hours post End of Synthesis, 3 validation batches) [%] | pH by probe [5] |
| --- | --- | --- | --- | --- | --- | --- |
| O=C(O)c1cc(O)ccc1O [gentisic acid, 2,5-dihydroxybenzoic acid] | about 2.5 |  |  |  |  |  |
| CC(C)CC(NC(=O)CC(O)C(CC(C)C)NC(=O)C(Cc1c[nH]cn1)NC(=O)CNC(=O)C(NC(=O)C(C)NC(=O)C(Cc1c[nH]c2ccccc12)NC(=O)C(CCC(N)=O)NC(=O)C(Cc1ccccc1)NC(=O)CCOCCNC(=O)CCCC(=O)NC12CNCCNCC(C)(CNCCNC1)CNCCNC2)C(C)C)C(N)=O (stereo not drawn) [[^67Cu]Formula (Ib), metal not drawn] |  | Clear ✓; also recorded: Particle-free ✓ | 0 | 94.23 | ≥ 94.0 | 6.72 |

Reference: US20260069727A1, “FORMULATIONS FOR RADIOTHERAPY AND DIAGNOSTIC IMAGING AND USE THEREOF IN TREATMENT, DIAGNOSIS AND IMAGING DISEASES” (priority 2022, published 2026)
